Molecular target: Clostridium difficile toxin A (TcdA) (Clostridium difficile) (UniProt P16154)
Test: cell-based or functional assay

Sequence of Clostridium difficile toxin A (TcdA) (Clostridium difficile) (P16154 whole entry): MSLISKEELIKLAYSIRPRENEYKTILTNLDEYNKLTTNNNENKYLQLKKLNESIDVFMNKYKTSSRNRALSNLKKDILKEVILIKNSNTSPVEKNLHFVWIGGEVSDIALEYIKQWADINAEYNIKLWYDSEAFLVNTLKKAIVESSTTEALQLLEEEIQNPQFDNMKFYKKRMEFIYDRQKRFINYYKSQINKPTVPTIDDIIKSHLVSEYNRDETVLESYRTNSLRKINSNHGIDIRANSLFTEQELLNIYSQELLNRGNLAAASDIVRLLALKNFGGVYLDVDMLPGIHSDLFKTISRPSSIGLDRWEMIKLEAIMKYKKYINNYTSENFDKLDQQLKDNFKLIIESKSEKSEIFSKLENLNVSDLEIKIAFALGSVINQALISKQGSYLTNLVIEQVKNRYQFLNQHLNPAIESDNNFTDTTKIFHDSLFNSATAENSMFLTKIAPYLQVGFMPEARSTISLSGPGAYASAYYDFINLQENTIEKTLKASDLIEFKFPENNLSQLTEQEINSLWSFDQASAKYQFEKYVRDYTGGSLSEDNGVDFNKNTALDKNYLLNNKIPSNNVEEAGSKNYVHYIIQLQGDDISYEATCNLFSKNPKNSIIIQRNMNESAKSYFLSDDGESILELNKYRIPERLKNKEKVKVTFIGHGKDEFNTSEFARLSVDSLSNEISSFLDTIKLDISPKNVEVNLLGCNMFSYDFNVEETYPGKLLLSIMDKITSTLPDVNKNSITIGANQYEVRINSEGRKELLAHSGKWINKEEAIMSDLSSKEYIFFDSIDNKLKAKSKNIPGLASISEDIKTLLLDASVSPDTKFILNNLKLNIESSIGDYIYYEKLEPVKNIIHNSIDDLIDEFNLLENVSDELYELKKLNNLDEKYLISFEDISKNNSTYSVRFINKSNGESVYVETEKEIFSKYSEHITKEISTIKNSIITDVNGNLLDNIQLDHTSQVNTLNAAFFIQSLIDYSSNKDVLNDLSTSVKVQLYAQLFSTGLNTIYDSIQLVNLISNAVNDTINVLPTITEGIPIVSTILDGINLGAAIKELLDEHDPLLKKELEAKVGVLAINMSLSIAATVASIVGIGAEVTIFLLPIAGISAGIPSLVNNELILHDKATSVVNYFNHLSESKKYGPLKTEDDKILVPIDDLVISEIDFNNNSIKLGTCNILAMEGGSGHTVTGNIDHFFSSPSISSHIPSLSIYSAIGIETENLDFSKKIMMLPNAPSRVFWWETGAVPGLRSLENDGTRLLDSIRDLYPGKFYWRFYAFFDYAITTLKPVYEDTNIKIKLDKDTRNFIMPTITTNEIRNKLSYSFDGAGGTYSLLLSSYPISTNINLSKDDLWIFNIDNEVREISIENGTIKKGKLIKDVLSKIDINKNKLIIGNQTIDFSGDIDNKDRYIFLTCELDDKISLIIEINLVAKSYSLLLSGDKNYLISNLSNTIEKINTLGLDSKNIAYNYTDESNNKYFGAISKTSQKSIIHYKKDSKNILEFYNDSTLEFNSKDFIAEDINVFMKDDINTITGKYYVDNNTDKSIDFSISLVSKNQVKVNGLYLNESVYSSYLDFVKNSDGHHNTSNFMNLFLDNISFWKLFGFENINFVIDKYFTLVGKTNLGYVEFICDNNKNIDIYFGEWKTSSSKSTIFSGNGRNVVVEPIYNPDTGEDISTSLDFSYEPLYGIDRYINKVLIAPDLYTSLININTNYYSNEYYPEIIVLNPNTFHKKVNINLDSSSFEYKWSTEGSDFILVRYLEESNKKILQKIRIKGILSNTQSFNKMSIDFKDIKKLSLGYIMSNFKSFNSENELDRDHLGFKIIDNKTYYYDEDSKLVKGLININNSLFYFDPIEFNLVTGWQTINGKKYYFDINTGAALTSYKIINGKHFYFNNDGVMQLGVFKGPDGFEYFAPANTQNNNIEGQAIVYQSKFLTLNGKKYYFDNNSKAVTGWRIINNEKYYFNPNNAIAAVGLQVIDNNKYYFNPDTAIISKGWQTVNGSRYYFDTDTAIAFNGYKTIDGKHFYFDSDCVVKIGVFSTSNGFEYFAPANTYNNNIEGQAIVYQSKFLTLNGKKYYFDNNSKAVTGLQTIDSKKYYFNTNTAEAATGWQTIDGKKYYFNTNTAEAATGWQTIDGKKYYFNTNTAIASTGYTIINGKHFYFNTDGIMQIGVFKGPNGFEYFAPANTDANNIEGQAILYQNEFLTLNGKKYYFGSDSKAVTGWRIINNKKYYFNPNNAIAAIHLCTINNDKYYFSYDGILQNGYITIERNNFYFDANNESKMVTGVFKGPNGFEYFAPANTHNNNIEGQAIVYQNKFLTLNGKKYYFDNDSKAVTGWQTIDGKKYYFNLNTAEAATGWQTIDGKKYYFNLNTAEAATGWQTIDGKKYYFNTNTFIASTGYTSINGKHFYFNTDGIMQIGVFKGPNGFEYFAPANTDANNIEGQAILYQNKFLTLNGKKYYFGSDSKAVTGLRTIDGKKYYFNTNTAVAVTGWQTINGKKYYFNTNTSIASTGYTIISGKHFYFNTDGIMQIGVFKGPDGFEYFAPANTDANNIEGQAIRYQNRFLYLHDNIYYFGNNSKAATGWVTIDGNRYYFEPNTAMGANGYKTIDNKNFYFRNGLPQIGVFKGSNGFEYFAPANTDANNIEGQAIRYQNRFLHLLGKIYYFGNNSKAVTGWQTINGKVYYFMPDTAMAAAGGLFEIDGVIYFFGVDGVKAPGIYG

Merck anti-TcdA human monoclonal antibody (actoxumab)
minimal dose of antibody protecting Vero cells from TcdA-induced cell rounding: > 10 nM

Reference: patent US20230340087A1
